Measured values from patent US7105636B1.

Biological target: TGFβ receptor complex of wild type TβRII and kinase-deficient TβRI (KR) (Homo sapiens (Human)) (UniProt P37173)
Assay: anti-Flag IP of [125I]TGFβ affinity-labelled receptors, gamma counting; reference: without Smad2

Flag-tagged hSARA1
fold enhancement of receptor binding by coexpressed Smad2: 2 fold
